The target of this assay is microtubules of transfected QBI-293 cells. In words: cell-based or functional assay.
“tau-4KQ acetylation mimetic (T40 K163/280/281/369Q) (from UniProt P10636 1-441)” showed a % MT bundling from tau-expressing cells of 7 % bundling.

With “tau-4KR non-mimetic mutant (T40 K163/280/281/369R) (from UniProt P10636 1-441)”, the % MT bundling from tau-expressing cells was determined as 50 % bundling.

The substance “tau-T40 K280Q mimetic (from UniProt P10636 1-441)” yielded a % MT bundling from tau-expressing cells of 40 % bundling. The figure for “wild-type tau-T40 (2N4R), not acetylated (from UniProt P10636 2-441)” is 55 % bundling.

These data come from patent publication US20130251731A1, “Tau Acetylation in the Pathogenesis of Alzheimers Disease and Other Related Tauopathies” (THE TRUSTEES OF THE UNIVERSITY OF PENNSYLVANIA, priority 2012, published 2013).
